Measured values reported in PMC3679363 (Molecular cell, 2013).

Target: recombinant His-Tip60α ( (human or mouse cDNA cloned), UniProt Q92993 1-513)
Test: pull-down

Sequence of recombinant His-Tip60α (Q92993 whole entry): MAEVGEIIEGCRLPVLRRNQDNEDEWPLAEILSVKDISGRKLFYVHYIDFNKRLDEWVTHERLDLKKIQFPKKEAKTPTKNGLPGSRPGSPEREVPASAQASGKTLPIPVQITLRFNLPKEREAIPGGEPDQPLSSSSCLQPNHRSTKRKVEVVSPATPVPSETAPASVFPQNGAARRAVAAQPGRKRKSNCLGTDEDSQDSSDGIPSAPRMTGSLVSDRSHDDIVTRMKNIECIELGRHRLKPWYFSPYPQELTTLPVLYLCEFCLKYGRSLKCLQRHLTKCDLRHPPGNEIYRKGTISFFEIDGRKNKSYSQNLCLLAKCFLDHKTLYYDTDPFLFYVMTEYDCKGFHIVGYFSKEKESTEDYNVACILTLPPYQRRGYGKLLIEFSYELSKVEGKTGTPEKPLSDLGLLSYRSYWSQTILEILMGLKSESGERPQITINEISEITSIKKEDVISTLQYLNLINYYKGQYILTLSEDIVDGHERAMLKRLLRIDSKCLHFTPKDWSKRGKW

B1: GST-PRAK (enzyme, UniProt Q8IW41 1-473, looked up)
chain: MSEESDMDKAIKETSILEEYSINWTQKLGAGISGPVRVCVKKSTQERFALKILLDRPKARNEVRLHMMCATHPNIVQIIEVFANSVQFPHESSPRARLLIVMEMMEGGELFHRISQHRHFTEKQASQVTKQIALALRHCHLLNIAHRDLKPENLLFKDNSLDAPVKLCDFGFAKIDQGDLMTPQFTPYYVAPQVLEAQRRHQKEKSGIIPTSPTPYTYNKSCDLWSLGVIIYVMLCGYPPFYSKHHSRTIPKDMRRKIMTGSFEFPEEEWSQISEMAKDVVRKLLKVKPEERLTIEGVLDHPWLNSTEALDNVLPSAQLMMDKAVVAGIQQAHAEQLANMRIQDLKVSLKPLHSVNNPILRKRKLLGTKPKDSVYIHDHENGAEDSNVALEKLRDVIAQCILPQAGKGENEDEKLNEVMQEAWKYNRECKLLRDTLQSFSWNGRGFTDKVDRLKLAEIVKQVIEEQTTSHESQ
Question: Does B1 bind?
Answer: binds
